± gives the uncertainty stated by the source.
B1: Transcriptional repressor p66-beta, residues 415 to 455; numbered along this chain, Q8WXI9 (parent)
chain: VEPFVCAQCRTDFTPHWKQEKNGKILCEQCMTSNQKKALKA
B2: 1-phosphatidylinositol 4,5-bisphosphate phosphodiesterase gamma-2, residues 772 to 827; numbered along this chain, P16885 (parent)
chain: RTVKALYDYKAKRSDELSFCRGALIHNVSKEPGGWWKGDYGTRIQQYFPSNYVEDI

Variants of: B1
Test: abundance fitness (aPCA) (normalised: wild type 0, dead -1); higher = more abundant; growth selection in yeast, the domain comes from the species named
Conditions: Homo sapiens

Variant	abundance fitness
Q19S	-0.044 ± 0.12
K18W	-0.195 ± 0.073
E2T	0.056 ± 0.1
D12T	-0.016 ± 0.092
C30K	-0.635 ± 0.18
E20L	-0.254 ± 0.1
A41G	0.01 ± 0.075
A41V	0.153 ± 0.18
C30E	-1.11 ± 0.2
E28L	-0.181 ± 0.086
T11K	0.427 ± 0.099
C6D	-0.718 ± 0.17
K18Y	-0.447 ± 0.34
M31P	-0.97 ± 0.29
A38T	0.687 ± 0.36
F13A	0.139 ± 0.067
L39Q	-0.291 ± 0.17
E28D	0.08 ± 0.17
K40W	-0.393 ± 0.11
V5F	-0.288 ± 0.2
K37H	-0.176 ± 0.23
T14F	-0.056 ± 0.21
A7K	0.09 ± 0.11
H16L	-0.272 ± 0.092

Variant	abundance fitness
G23N	0.303 ± 0.18
P3L	0.095 ± 0.085
V1M	0.212 ± 0.13
E20A	-0.498 ± 0.099
H16C	0.072 ± 0.15
F13M	0.192 ± 0.12
Q35R	-0.197 ± 0.067
P15V	0.015 ± 0.063
H16I	-0.073 ± 0.2
T11G	0.354 ± 0.05
K21G	0.145 ± 0.053
P15R	-0.15 ± 0.062
Q8M	0.657 ± 0.12
F4D	0.282 ± 0.077
E2Q	-0.297 ± 0.17
F4H	0.114 ± 0.32
T11E	0.312 ± 0.064
S33W	-0.379 ± 0.14
Q29D	-0.083 ± 0.25
H16E	-0.042 ± 0.11
M31D	-0.106 ± 0.11
C6R	-1 ± 0.15
C9P	-0.049 ± 0.15
F4T	-0.126 ± 0.085

Variant	abundance fitness
S33A	-0.04 ± 0.072
C27G	-1.05 ± 0.21
P15L	-0.018 ± 0.1
L26E	-0.194 ± 0.093
C27Y	-0.444 ± 0.43
Q8N	0.741 ± 0.14
C6G	-1.02 ± 0.14
H16K	-0.28 ± 0.18
L39H	-0.078 ± 0.14
T11S	0.058 ± 0.064
K37V	-0.035 ± 0.076
V1I	-0.288 ± 0.24
C30V	-0.664 ± 0.13
N34F	-0.206 ± 0.13
F4S	-0.169 ± 0.073
E20Q	-0.303 ± 0.13
R10C	0.957 ± 0.068
K24L	-0.106 ± 0.07
S33Y	0.28 ± 0.2
I25C	-0.192 ± 0.12
K24Q	0.097 ± 0.094
Q8K	0.788 ± 0.075
F13Q	-0.593 ± 0.28
F4Y	-0.14 ± 0.33

Variant	abundance fitness
E2A	-0.352 ± 0.088
F4E	-0.134 ± 0.091
C6K	-0.368 ± 0.29
P15E	-0.102 ± 0.076
T14G	-0.395 ± 0.086
T32R	-0.145 ± 0.062
F13T	0.039 ± 0.094
L26V	-0.196 ± 0.073
C9T	-0.203 ± 0.12
H16G	-0.022 ± 0.059
V5E	-0.226 ± 0.089
C6Y	-0.23 ± 0.39
K36P	-0.242 ± 0.14
C27L	-1.32 ± 0.27
N22R	0.208 ± 0.065
D12L	-0.198 ± 0.1
L39Y	0.577 ± 0.33
N34I	-0.088 ± 0.41
Q8T	0.864 ± 0.075
E2R	-0.55 ± 0.15
Q29H	0.333 ± 0.12
M31W	-0.041 ± 0.072
R10A	0.904 ± 0.067
E20T	-0.315 ± 0.2

Variant	abundance fitness
N22W	0.137 ± 0.1
Q29P	-0.141 ± 0.12
W17K	0.387 ± 0.11
K37C	-0.309 ± 0.14
Q29V	-0.389 ± 0.086
L39C	-0.1 ± 0.16
V5T	0.041 ± 0.1
A38G	-0.213 ± 0.057
T14A	-0.185 ± 0.086
K37E	0.142 ± 0.066
S33Q	-0.017 ± 0.077
T14H	-0.039 ± 0.14
A7E	0.188 ± 0.063
L26P	-0.125 ± 0.088
M31A	-0.038 ± 0.07
N34Y	-0.287 ± 0.18
T11L	0.156 ± 0.086
K24D	-0.166 ± 0.47
V1N	-0.178 ± 0.3
R10Y	0.518 ± 0.082
E28W	-0.307 ± 0.096
A7R	0.075 ± 0.064
C6L	-0.939 ± 0.24
L26M	0.358 ± 0.37

Variant	abundance fitness
F4C	0.659 ± 0.067
V5W	-0.405 ± 0.13
K18Q	-0.105 ± 0.11
S33K	-0.222 ± 0.2
D12N	0.187 ± 0.15
M31T	-0.054 ± 0.12
I25F	-0.132 ± 0.14
K21P	0.264 ± 0.12
C9G	-0.262 ± 0.062
T32G	-0.121 ± 0.065
A38Y	-0.228 ± 0.21
E20I	0.391 ± 0.34
K21M	-0.054 ± 0.17
P15G	-0.048 ± 0.06
P3C	0.488 ± 0.42
A7W	-0.223 ± 0.083
Q35V	-0.339 ± 0.086
R10I	0.521 ± 0.14
N34P	-0.257 ± 0.11
C30Q	-0.795 ± 0.29
Q8P	-0.393 ± 0.12
Q19T	-0.346 ± 0.32
P15I	-0.154 ± 0.19
T32L	-0.312 ± 0.093

Variant	abundance fitness
K37R	-0.074 ± 0.064
W17V	0.082 ± 0.069
T32P	-0.056 ± 0.14
N34M	-0.371 ± 0.2
E28K	-0.062 ± 0.17
E28A	-0.122 ± 0.091
R10N	-0.022 ± 0.22
G23M	0.422 ± 0.21
C30D	-0.315 ± 0.19
N34Q	-0.083 ± 0.082
T11H	0.346 ± 0.22
C27A	-1.01 ± 0.18
A38E	0.167 ± 0.083
T14K	-0.014 ± 0.072
N34V	-0.223 ± 0.065
M31K	-0.043 ± 0.14
I25M	-0.081 ± 0.076
W17P	-0.135 ± 0.17
L26K	-0.218 ± 0.13
W17I	0.013 ± 0.24
K36N	0.14 ± 0.26
K18S	0.021 ± 0.092
K40A	-0.025 ± 0.071
A41C	-0.215 ± 0.2

Variant	abundance fitness
Q35A	-0.117 ± 0.063
M31L	-0.274 ± 0.11
G23Q	0.335 ± 0.22
S33E	-0.007 ± 0.086
Q35L	-0.365 ± 0.1
T14V	0.144 ± 0.067
K24C	-0.213 ± 0.15
T32E	-0.186 ± 0.092
K18D	-0.099 ± 0.24
T11W	-0.133 ± 0.072
Q35C	-0.218 ± 0.14
H16T	0.09 ± 0.089
V5S	0.136 ± 0.094
K36W	-0.256 ± 0.085
P15Q	-0.137 ± 0.23
P15W	-0.401 ± 0.087
A7F	0.068 ± 0.11
I25L	-0.158 ± 0.083
Q29K	0.086 ± 0.11
K18R	-0.072 ± 0.078
C9Y	-0.937 ± 0.43
K36Q	0.105 ± 0.14
K37Y	-0.116 ± 0.2
F13E	-0.007 ± 0.074

Variant	abundance fitness
C6A	-0.771 ± 0.19
Q19D	0.212 ± 0.15
Q29M	-0.14 ± 0.095
L39F	-0.425 ± 0.26
H16Y	-0.004 ± 0.24
K36R	-0.168 ± 0.068
D12Q	-0.208 ± 0.1
K18H	0.155 ± 0.38
Q8Y	0.428 ± 0.14
T32K	0.045 ± 0.26
L39K	-0.015 ± 0.13
V5K	0.027 ± 0.11
E28C	0.074 ± 0.23
E28I	-0.418 ± 0.13
C27M	-1.31 ± 0.42
R10H	1.1 ± 0.083
E28R	-0.343 ± 0.078
C9E	-0.235 ± 0.11
C6E	-1.02 ± 0.21
M31G	0.01 ± 0.059
K37I	-0.092 ± 0.24
T32M	-0.145 ± 0.087
T14R	-0.237 ± 0.068
K18I	-0.295 ± 0.38

Variant	abundance fitness
A41W	0.002 ± 0.49
C30L	-0.786 ± 0.11
F13L	-0.179 ± 0.072
Q35M	-0.157 ± 0.18
F13G	-0.116 ± 0.059
P3R	0.121 ± 0.062
T14W	-0.521 ± 0.094
T11C	0.183 ± 0.11
L26N	-0.411 ± 0.22
I25V	-0.407 ± 0.089
E20W	-0.362 ± 0.16
K18L	-0.217 ± 0.069
P3K	-0.118 ± 0.16
K18M	-0.011 ± 0.19
L26D	-0.295 ± 0.097
G23P	-0.016 ± 0.16
D12Y	-0.025 ± 0.13
F13H	-0.244 ± 0.3
K40R	0.285 ± 0.065
M31Q	0.05 ± 0.086
G23A	0.148 ± 0.062
P15A	-0.011 ± 0.075
A7T	0.208 ± 0.07
S33H	0.121 ± 0.49

Variant	abundance fitness
F13R	-0.144 ± 0.065
E2S	-0.074 ± 0.086
Q35I	-0.378 ± 0.16
E20C	0.158 ± 0.13
K21W	0.037 ± 0.077
V5L	0.18 ± 0.068
P3H	0.215 ± 0.11
C9N	-0.717 ± 0.41
C9R	-0.436 ± 0.09
G23L	0.142 ± 0.14
E20D	-0.645 ± 0.41
K37L	-0.036 ± 0.08
K40T	0.071 ± 0.08
N22Y	0.19 ± 0.3
F13S	-0.164 ± 0.079
D12C	0.141 ± 0.14
K37M	0.095 ± 0.13
D12V	0.312 ± 0.059
A41E	-0.02 ± 0.27
E2P	-0.29 ± 0.16
T14Q	-0.078 ± 0.12
T11M	0.436 ± 0.08
G23R	0.003 ± 0.067
Q8A	0.821 ± 0.065

Variant	abundance fitness
V1T	-0.187 ± 0.36
L26S	-0.077 ± 0.086
H16A	-0.077 ± 0.074
I25R	-0.168 ± 0.07
F4P	-0.208 ± 0.18
A7D	0.27 ± 0.096
E20S	-0.115 ± 0.11
R10L	0.585 ± 0.064
Q35K	-0.136 ± 0.26
L39I	0.122 ± 0.18
C27E	-0.319 ± 0.27
L26R	-0.145 ± 0.067
A41K	-0.091 ± 0.43
K40L	-0.467 ± 0.12
N22A	0.05 ± 0.069
C27S	-0.739 ± 0.13
N22S	0.382 ± 0.08
D12S	0.117 ± 0.086
K40S	-0.073 ± 0.11
V1G	0.024 ± 0.093
W17T	0.564 ± 0.2
K36E	-0.09 ± 0.082

Variants of: B2
Test: as above
Conditions: Homo sapiens

Variant	abundance fitness
CTVKALYDYKAKRSDELSFCRGALIHNVSKEPGGWWKGDYGTRIQQYFPSNYVEDI [R1C]	-0.495 ± 0.38
ETVKALYDYKAKRSDELSFCRGALIHNVSKEPGGWWKGDYGTRIQQYFPSNYVEDI [R1E]	-0.056 ± 0.14
GTVKALYDYKAKRSDELSFCRGALIHNVSKEPGGWWKGDYGTRIQQYFPSNYVEDI [R1G]	-0.328 ± 0.12
ITVKALYDYKAKRSDELSFCRGALIHNVSKEPGGWWKGDYGTRIQQYFPSNYVEDI [R1I]	-0.141 ± 0.32
MTVKALYDYKAKRSDELSFCRGALIHNVSKEPGGWWKGDYGTRIQQYFPSNYVEDI [R1M]	-0.07 ± 0.25
TTVKALYDYKAKRSDELSFCRGALIHNVSKEPGGWWKGDYGTRIQQYFPSNYVEDI [R1T]	0.417 ± 0.11
VTVKALYDYKAKRSDELSFCRGALIHNVSKEPGGWWKGDYGTRIQQYFPSNYVEDI [R1V]	0.257 ± 0.36
WTVKALYDYKAKRSDELSFCRGALIHNVSKEPGGWWKGDYGTRIQQYFPSNYVEDI [R1W]	0.23 ± 0.16
YTVKALYDYKAKRSDELSFCRGALIHNVSKEPGGWWKGDYGTRIQQYFPSNYVEDI [R1Y]	0.164 ± 0.061
RAVKALYDYKAKRSDELSFCRGALIHNVSKEPGGWWKGDYGTRIQQYFPSNYVEDI [T2A]	-0.287 ± 0.11
RCVKALYDYKAKRSDELSFCRGALIHNVSKEPGGWWKGDYGTRIQQYFPSNYVEDI [T2C]	-0.344 ± 0.2
REVKALYDYKAKRSDELSFCRGALIHNVSKEPGGWWKGDYGTRIQQYFPSNYVEDI [T2E]	-0.279 ± 0.28
RFVKALYDYKAKRSDELSFCRGALIHNVSKEPGGWWKGDYGTRIQQYFPSNYVEDI [T2F]	-0.702 ± 0.41
RGVKALYDYKAKRSDELSFCRGALIHNVSKEPGGWWKGDYGTRIQQYFPSNYVEDI [T2G]	-0.578 ± 0.1

From the Human Domainome abundance scans (Beltran et al. 2025)
